Target: T1, Cys2-pilin-C (Streptococcus pyogenes serotype M1, UniProt Q9A1S2 18-299, N-terminal Cys2 linker attached to the shell surface of the nanocrystal (QD or dot-in-rod HNC) during shell synthesis)
T1 construct: Tested only as a nanocrystal conjugate; also called QD-pilin-C; CdSe/CdS QD-pilin-C conjugates
T1 sequence: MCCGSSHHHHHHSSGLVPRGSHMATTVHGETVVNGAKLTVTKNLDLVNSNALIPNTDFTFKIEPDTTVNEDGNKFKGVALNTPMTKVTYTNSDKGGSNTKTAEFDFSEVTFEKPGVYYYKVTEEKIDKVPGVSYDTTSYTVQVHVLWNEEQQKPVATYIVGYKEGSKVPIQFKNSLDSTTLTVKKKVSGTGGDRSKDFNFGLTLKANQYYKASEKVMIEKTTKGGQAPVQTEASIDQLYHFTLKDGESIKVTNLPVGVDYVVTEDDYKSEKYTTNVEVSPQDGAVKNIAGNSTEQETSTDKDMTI
Test: TEM and HRTEM (FIGS. 11, 11A and 11B)

B1: CsgAHisTag amyloid fibrils (other)
chain: GVVPQYGGGGNHGGGGNNSGPNHHHHHHHSELNIYQYGGGNSALALQTDARNSDLTITQHGGGNGADVGQGSDDSSIDLTQRGFGNSATLDQWNGKNSEMTVKQFGGGNGAAVDQTASNSSVNVTQVGFGNNATAHQYHHHHHHH
notes: Fibrils composed only of CsgAHisTag subunits, used as a control for QD-pilin-C
B1: no binding.

From US20160238591A1 (MIT, published 2016)
